Experiments:
[1] = biological target: the molecule itself; assay: SEC; Superdex 200 HR 10/30, room temperature; K-buffer (1 mM PIPES-TEA hydroxide pH 6.9, 1 mM EDTA, 0.5 mM DTT, 250 mM KCl); 0.25 mg/ml protein
[2] = biological target: the molecule itself; assay: dynamic light scattering; 20°C; K-buffer (non-salt buffer plus 250 mM KCl); 0.25 mg/ml enzyme
[3] = biological target: the molecule itself; assay: dynamic light scattering; 20°C; non-salt buffer (1 mM PIPES-TEA hydroxide pH 6.9, 1 mM EDTA, 0.5 mM DTT); 0.25 mg/ml enzyme; for SoBADH: dimers to tetramer

Protein | stoichiometry N [1] | stoichiometry N [2] | stoichiometry N [3]
betaine aldehyde dehydrogenase from Pseudomonas aeruginosa (enzyme, betaine aldehyde dehydrogenase (BADH, ALDH9) of Pseudomonas aeruginosa; recombinant; Homotetramer; also called PaBADH; ALDH9; source: E. coli, purified to homogeneity) MARFEEQKLYIGGRYVEASSGATFETINPANGEVLAKVQRASREDVERAVQSAVEGQKVWAAMTAMQRSRILRRAVDILRERNDELAALETLDTGKPLAETRSVDIVTGADVLEYYAGLVPAIEGEQIPLRETSFVYTRREPLGVVAGIGAWNYPVQIALWKSAPALAAGNAMIFKPSEVTPLTALKLAEIYTEAGVPDGVFNVLTGSGREVGQWLTEHPLIEKISFTGGTSTGKKVMASASSSSLKEVTMELGGKSPLIIFPDADLDRAADIAVMANFFSSGQVCTNGTRVFIHRSQQARFEAKVLERVQRIRLGDPQDENTNFGPLVSFPHMESVLGYIESGKAQKARLLCGGERVTDGAFGKGAYVAPTVFTDCRDDMTIVREEIFGPVMSILVYDDEDEAIRRANDTEYGLAAGVVTQDLARAHRAIHRLEAGICWINTWGESPAEMPVGGYKQSGVGRENGLTTLAHYTRIKSVQVELGDYASVF | 4 |  | 
betaine aldehyde dehydrogenase from spinach (Spinacia oleracea) (enzyme, betaine aldehyde dehydrogenase (BADH, ALDH10) of Spinacia oleracea; recombinant; Homodimer in K-buffer; associates into tetramers in the non-salt buffer; also called SoBADH; ALDH10; source: E. coli, purified to homogeneity) MAFPIPARQLFIDGEWREPIKKNRIPVINPSTEEIIGDIPAATAEDVEVAVVAARRAFRRNNWSATSGAHRATYLRAIAAKITEKKDHFVKLETIDSGKPFDEAVLDIDDVASCFEYFAGQAEALDGKQKAPVTLPMERFKSHVLRQPLGVVGLISPWNYPLLMATWKIAPALAAGCTAVLKPSELASVTCLEFGEVCNEVGLPPGVLNILTGLGPDAGAPLVSHPDVDKIAFTGSSATGSKVMASAAQLVKPVTLELGGKSPIVVFEDVDIDKVVEWTIFGCFWTNGQICSATSRLLVHESIAAEFVDKLVKWTKNIKISDPFEEGCRLGPVISKGQYDKIMKFISTAKSEGATILYGGSRPEHLKKGYYIEPTIVTDISTSMQIWKEEVFGPVLCVKTFSSEDEAIALANDTEYGLAAAVFSNDLERCERITKALEVGAVWVNCSQPCFVQAPWGGIKRSGFGRELGEWGIQNYLNIKQVTQDISDEPWGWYKS |  | 2 | 4
